Test [1] deals with T1, hCD19-his (human CD19 recombinant protein, Pro20-Lys291, His tag at C-terminus) (human, UniProt P15391 20-291).
T1 construct: range 20-291; also called human CD19-His
T1 sequence (looked up): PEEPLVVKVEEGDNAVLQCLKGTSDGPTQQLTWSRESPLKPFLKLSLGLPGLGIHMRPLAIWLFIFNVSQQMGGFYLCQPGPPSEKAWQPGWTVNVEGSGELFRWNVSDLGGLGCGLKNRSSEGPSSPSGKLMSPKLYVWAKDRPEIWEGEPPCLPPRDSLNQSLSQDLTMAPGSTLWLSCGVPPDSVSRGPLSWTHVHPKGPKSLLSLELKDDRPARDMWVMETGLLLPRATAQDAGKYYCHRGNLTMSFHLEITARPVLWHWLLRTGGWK
The test is described as follows: ELISA, coated hCD19-His, fully humanized antibody titrated. On the procedure:
According to the method described in Example 4, 0.5 μg/ml of hCD19-His was spread and incubated. The fully humanized antibodies were serially diluted and added to bind the incubated antigen. The binding signal of each antibody could be detected with HRP-labeled goat […] Fc antibody. The results are shown in FIG. 5 and Table 5, as follows: […]

The target in test [2] is T2, CD19 expressed by Nalm6 cells (UniProt P15391 20-556, limits assumed).
T2 construct: whole, on cells; Endogenous CD19 on tumor cell lines; also called Nalm6/GL; CD19 antigen on RAJI-GL and NALM6-GL tumor cells
T2 sequence (looked up): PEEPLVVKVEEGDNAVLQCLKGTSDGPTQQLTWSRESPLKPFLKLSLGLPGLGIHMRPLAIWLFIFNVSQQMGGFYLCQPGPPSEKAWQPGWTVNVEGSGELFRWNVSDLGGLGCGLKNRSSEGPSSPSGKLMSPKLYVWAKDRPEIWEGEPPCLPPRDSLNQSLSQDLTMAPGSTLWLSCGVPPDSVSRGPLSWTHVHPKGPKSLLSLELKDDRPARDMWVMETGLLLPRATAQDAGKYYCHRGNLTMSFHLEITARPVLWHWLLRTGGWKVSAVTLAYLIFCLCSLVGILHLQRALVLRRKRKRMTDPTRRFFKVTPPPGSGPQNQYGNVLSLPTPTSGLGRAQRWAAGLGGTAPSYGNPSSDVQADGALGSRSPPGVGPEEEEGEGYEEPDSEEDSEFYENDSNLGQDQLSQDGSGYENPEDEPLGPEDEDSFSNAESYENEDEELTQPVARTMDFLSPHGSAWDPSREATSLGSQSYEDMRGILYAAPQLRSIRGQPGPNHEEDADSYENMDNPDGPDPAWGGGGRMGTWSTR
The test is described as follows: flow cytometry on Nalm6 cells. On the procedure: The CD19-expressing tumor cells Nalm6 in logarithmic growth phase were collected and resuspended in PBS at a cell density of 10⁵/well, 100 μl/well. The diluted CD19 antibodies were added into the well and incubated at 4° C. for 1 hour. The cells were washed three times with flow cytometry wash buffer. Anti-rat IgG-Alexa Fluor 647 (Abcam, Cat #ab150163) was added and incubated at 4° C. for 1 hour. The cells were washed three times with flow cytometry wash buffer. The samples were analyzed by flow cytometry. The results are shown in FIG. 3 and Table 4, as follows: […]

The next test has as its target T3, h41BB (human, UniProt Q07011 24-186).
T3 construct: Coated antigen of the specificity ELISA
The test is described as follows: ELISA, coated antigen 0.5 µg/ml. How it is done: (§1) According to the method described in Example 4, 0.5 μg/ml of hCD19-His, hVISTA-his, hPD-L1, hCD40, h41BB and hLAG3 were spread and incubated respectively, and 2μg/ml of purified antibodies were added to bind the incubated antigen. The binding signal of each antibody could be detected with HRP-labeled goat anti-rat Fc antibody.

The target in the next test is T4, hLAG3 (human, UniProt P18627 23-450, limits assumed).
T4 construct: Coated antigen of the specificity ELISA
T4 sequence (looked up): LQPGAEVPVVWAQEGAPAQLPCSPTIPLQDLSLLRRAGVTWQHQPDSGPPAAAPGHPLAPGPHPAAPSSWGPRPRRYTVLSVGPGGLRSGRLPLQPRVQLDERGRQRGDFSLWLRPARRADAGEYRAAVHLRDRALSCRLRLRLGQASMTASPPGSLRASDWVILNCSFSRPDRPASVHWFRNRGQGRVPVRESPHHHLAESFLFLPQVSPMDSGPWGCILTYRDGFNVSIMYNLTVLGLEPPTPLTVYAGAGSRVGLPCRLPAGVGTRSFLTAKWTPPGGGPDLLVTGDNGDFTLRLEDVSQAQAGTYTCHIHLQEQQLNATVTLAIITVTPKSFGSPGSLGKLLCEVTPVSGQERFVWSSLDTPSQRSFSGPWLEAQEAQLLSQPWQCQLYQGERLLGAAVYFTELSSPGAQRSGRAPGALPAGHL
The test is described as follows: ELISA, coated antigen 0.5 µg/ml. How it is done: as §1

For a further test, the target named is T5, hPD-L1 (human, UniProt Q9NZQ7 19-238, limits assumed).
T5 construct: Coated antigen of the specificity ELISA
Briefly: ELISA, coated antigen 0.5 µg/ml. On the procedure: as §1

For a further test, the target named is T6, hCD40 (human, UniProt P25942 21-193).
T6 construct: Coated antigen of the specificity ELISA
The test is described as follows: ELISA, coated antigen 0.5 µg/ml. How it is done:
as §1

The target in another test is T7, hVISTA-his (human, UniProt Q9H7M9 33-194).
T7 construct: Coated antigen of the specificity ELISA
T7 sequence (looked up): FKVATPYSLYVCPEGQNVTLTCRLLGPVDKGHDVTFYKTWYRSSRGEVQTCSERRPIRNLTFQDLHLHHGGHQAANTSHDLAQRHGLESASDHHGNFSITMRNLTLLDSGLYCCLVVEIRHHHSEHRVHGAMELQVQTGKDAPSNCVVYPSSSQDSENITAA
The test is described as follows: ELISA, coated antigen 0.5 µg/ml. On the procedure: as §1

The target of test [3] is T1, hCD19-his (human CD19 recombinant …). Briefly: ELISA, coated hCD19-His. How it is done: The antibodies were screened by ELISA according to Example 2. Briefly, […] of hCD19-His (ACRO) were spread and incubated. The purified antibodies were serially diluted to bind the incubated antigen. The binding signal of each antibody could be detected with HRP-labeled goat anti-rat Fc antibody.
Graphpad Prism software was used to calculate the fitting data.

Test [4] addresses T8, CD19 expressed by Nalm6 cells (UniProt P15391 20-556).
T8 chain: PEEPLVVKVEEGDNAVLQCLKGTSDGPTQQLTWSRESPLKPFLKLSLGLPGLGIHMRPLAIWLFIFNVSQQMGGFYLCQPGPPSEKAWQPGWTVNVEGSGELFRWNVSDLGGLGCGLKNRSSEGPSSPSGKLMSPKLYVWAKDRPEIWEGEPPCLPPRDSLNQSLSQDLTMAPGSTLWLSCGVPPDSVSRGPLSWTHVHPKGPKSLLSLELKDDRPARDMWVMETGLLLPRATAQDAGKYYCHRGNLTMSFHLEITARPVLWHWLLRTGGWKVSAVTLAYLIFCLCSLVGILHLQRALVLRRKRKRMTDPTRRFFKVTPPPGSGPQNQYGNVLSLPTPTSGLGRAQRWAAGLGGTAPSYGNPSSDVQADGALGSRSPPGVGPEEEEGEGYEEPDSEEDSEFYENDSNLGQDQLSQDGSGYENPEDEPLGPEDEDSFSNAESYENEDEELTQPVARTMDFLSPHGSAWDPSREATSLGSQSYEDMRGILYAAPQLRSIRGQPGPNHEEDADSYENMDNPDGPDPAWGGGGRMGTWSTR
The test is described as follows: flow cytometry.

T6 sequence (P25942 21-193 limits assumed): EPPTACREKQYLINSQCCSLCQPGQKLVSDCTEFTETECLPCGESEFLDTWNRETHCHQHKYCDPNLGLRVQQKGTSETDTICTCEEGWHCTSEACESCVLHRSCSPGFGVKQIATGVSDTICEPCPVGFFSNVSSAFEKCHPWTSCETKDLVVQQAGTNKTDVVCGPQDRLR
T5 sequence (Q9NZQ7 19-238 limits assumed): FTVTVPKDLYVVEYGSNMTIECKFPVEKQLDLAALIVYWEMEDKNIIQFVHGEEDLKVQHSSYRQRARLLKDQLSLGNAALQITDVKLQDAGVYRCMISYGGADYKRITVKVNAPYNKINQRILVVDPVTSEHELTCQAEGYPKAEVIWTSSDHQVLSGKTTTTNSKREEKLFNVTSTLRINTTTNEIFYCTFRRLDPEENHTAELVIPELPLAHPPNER

B1: 52F9 fully humanized antibody (recombinant, human IgG1 / kappa) (antibody, V domains shown)
VH: QVQLVESGGGVVQAGRSLRLSCAASGFTFSNYGIHWVRQAPGKGLEWVGVIWHDGSIKNYADFVKGRFTISRDNSEDTLYLQMNSLRAEDTAVYYCAREQGNYYGWGSYKAFDIWGQGTMVTVSS
VL: DIQLTQSPSFLSVFVGDRVTITCRASQGISNYLAWYQQKPGKAPELLLYATSTLQSGVPSRLSGSGSGTEFTLTLSSLQPEDFATYYCQQVYSFPYTFGQGTKLEIK
Take B1: in test [1], the EC50 came out at 7.92 ng/mL.

B2: 31A2 (hybridoma antibody) (antibody, V domains shown)
VH: QVQLVESGGGVVQPGRSLRLSCAASGFTFSRHGMHWVRQAPGKGLEWVAVIWYDGSNKYYVDSVKGRFTISRDNSKNTLDLQMNSLRAEDTAVYYCARRSITWDGAFDIWGQGTMVTVSS
VL: DIQMTQSPSTLSASVGDRVTISCRASQSISSWLAWYQQKPGKAPKLLIYKASSLESGVPSRFSGSGSGTEFTLTISSLQPDDFATYYCQQYNSAYTFGQGTKLEIK
notes: hybridoma mAb from H2L2 mouse (human variable, rat constant regions)
Consider B2, for which the “Maximum mean fluorescence intensity (30 µg/ml)” value in test [2] came out at 24700. The binding result in the test with h41BB, in the test with hLAG3, with hPD-L1, in the test with hCD40 and with hVISTA-his was “no binding (tested: 2 µg/ml)” throughout. The EC50 in test [3] turned out to be 24.9 ng/mL; in test [4] it was 22900 ng/mL.

B3: 17B6 fully humanized antibody (recombinant, human IgG1 / kappa) (antibody, V domains shown)
VH: QVQLVESGGGVVQPGRSLRLSCEASGFTFSRHGMHWVRQAPGKGLEWVAVIFYDGSQNYYADSVRGRFTISRDNSKNTLSLQMDSLRAEDTAVYYCARRSITWNGGFDIWGQGTMVTVSP
VL: DIQMTQSPSTLSASVGDRVTITCRASQSISSWLAWYQQKPGKAPKLLIYKASSLESGVPSRFSGSGSGTEFTLAISSLQPDDFATYYCQQYNRFYTFGQGTKLEIK
For B3, the EC50 in test [1] came out at 4.52 ng/mL.

B4: 31A2 fully humanized antibody (recombinant, human IgG1 / kappa) (antibody, V domains shown)
VH: QVQLVESGGGVVQPGRSLRLSCAASGFTFSRHGMHWVRQAPGKGLEWVAVIWYDGSNKYYVDSVKGRFTISRDNSKNTLDLQMNSLRAEDTAVYYCARRSITWDGAFDIWGQGTMVTVSS
VL: DIQMTQSPSTLSASVGDRVTISCRASQSISSWLAWYQQKPGKAPKLLIYKASSLESGVPSRFSGSGSGTEFTLTISSLQPDDFATYYCQQYNSAYTFGQGTKLEIK
Regarding B4, in test [1], the EC50 amounted to 4.46 ng/mL.

B5: 11H8 (hybridoma antibody) (antibody, V domains shown)
VH: QVQLVESGGGVVQPGRSLRLSCAASGFTFSRHGMHWVRQAPGKGLEWVAVIWYDGSNQYYVDSVKGRFTISRDNSKNTLDLQMNSLRVEDTAVYYCARRSITWYGGFDIWGQGTMVTVSS
VL: DIQMTQSPSTLSASVGDRVTITCRASQSISSWLAWYQQKPGKAPKLLIYKASSLESGVPPRFSGSGSGTEFTLTISSLQPDDFATYYCQQYNSAYTFGQGTKLEIK
notes: as for B2
On to B5, for which the “Maximum mean fluorescence intensity (30 µg/ml)” value in test [2] was 23300. Besides, the binding result with h41BB, with hLAG3, with hPD-L1, with hCD40 and in the test with hVISTA-his was “no binding (tested: 2 µg/ml)” each time. The figures for the EC50 in test [3] and in test [4] were 30.1 ng/mL and 11800 ng/mL, respectively.

B6: 19D6 (antibody, V domains shown)
VH: QVQLVESGGGVVQPGRSLRLSCAASGFTFSRHGMHWVRQAPGKGLEWVAVIWYDGSNKYYVDSVKGRFTISRDNSKNTLDLQMNSLRAEDTAVYYCARRSITWDGAFDIWGQGTMVTVSS
VL: DIQMTQSPSTLSASVGDRVTVTCRASQSIRSWLAWYQQKPGKAPKLLIYKASSLESGVPSRFSGSGSGTEFTLTISSLQPDDFATYYCQQYNSAYTFGQGTKLEIK
notes: as for B2
As for B6, the “Maximum mean fluorescence intensity (30 µg/ml)” value in test [2] is 10400. Further, in test [3], the EC50 turned out to be 73.7 ng/mL.

B7: 11H8 fully humanized antibody (recombinant, human IgG1 / kappa) (antibody, V domains shown)
VH: QVQLVESGGGVVQPGRSLRLSCAASGFTFSRHGMHWVRQAPGKGLEWVAVIWYDGSNQYYVDSVKGRFTISRDNSKNTLDLQMNSLRVEDTAVYYCARRSITWYGGFDIWGQGTMVTVSS
VL: DIQMTQSPSTLSASVGDRVTITCRASQSISSWLAWYQQKPGKAPKLLIYKASSLESGVPPRFSGSGSGTEFTLTISSLQPDDFATYYCQQYNSAYTFGQGTKLEIK
B7: the EC50 in test [1] worked out at 2.63 ng/mL.

B8: 15F2 fully humanized antibody (recombinant, human IgG1 / kappa) (antibody, V domains shown)
VH: QVQLVESGGGVVQPGRSLRLSCAASGFTFSRHGMHWVRQAPGKGLEWVAVIWYDGSNKYYVDSVKGRFTISRDNSKNTLDLQMNSLRAEDTAVYYCARRSITWDGAFDIWGQGTMVTVSS
VL: DIQMTQSPSTLSASVGDRVTVTCRASQSIRSWLAWYQQKPGKAPKLLIYKASSLESGVPSRFSGSGSGTEFTLTISSLQPDDFATYYCQQYNSAYTFGQGTKLEIK
In the case of B8, the 50% effective concentration (EC50) in [1] came to 3.78 ng/mL.

B9: 27F11 fully humanized antibody (recombinant, human IgG1 / kappa) (antibody, V domains shown)
VH: QVQLVESGGGVVQPGRSLRLSCAASGFTFSRHGMHWVRQAPGKGLEWVAVIYYDGSNKYYVDSVKGRFTISRDNSKNTLDLQMNSLRAEDTAVYYCARRSITWNGAFDIWGQGTMVTVSS
VL: DIQMTQSPSTLSASVGDRVTISCRASQSISSWLAWYQQKPGKAPKLLIYKASSLESGVPSRFSGSGSGTEFTLTISSLQPDDFATYYCQQYNSAYTFGQGTKLEIK
In the case of B9, in test [1], the EC50 is 4 ng/mL.

These data come from patent US20210238253A1 (GUANGDONG ZHAOTAI INVIVO BIOMEDICINE, published 2021).
